Consider 16 molecules from patent publication US20090111753A1, “Nogo-A Polypeptide Fragments, Variant Nogo Receptor-1 Polypeptides, and Uses Thereof” (Yale University, priority 2004, published 2009).

Sequences and labels used below:
B1: human NgR1 alanine mutant 87, 89, 133, 136 (receptor)
chain: CPGACVCYNEPKVTTSCPQQGLQAVPVGIPAASQRIFLHGNRISHVPAASFRACRNLTILALASNVLARIDAAAFTGLALLEQLDLSDNAQLRSVDPATFHGLGRLATLALDRCGLQELGPGLFRGLAALQYLYLQDNALQALPDDTFRDLGNLTHLFLHGNRISSVPERAFRGLHSLDRLLLHQNRVAHVHPHAFRDLGRLMTLYLFANNLSALPTEALAPLRALQYLRLNDNPWVCDCRARPLWAWLQKFRGSSSEVPCSLPQRLAGRDLKRLAANDLQGCAVATGPYHPIWTGRATDEEPLGLPKCCQPDAADKASVLEPGRPASAGNALKGRVPPGDSPPGNGSGPRHINDSPFGTLPGSAEPPLTAVRPEGSEPPGFPTSGPRRRPGCSRKNRTRSHCRLGQAGSGGGGTGDSEGSGALPSLTCSLTPLGLALVLWTVLGPC
B2: human NgR1 alanine mutant 182, 186, 158, 160 (receptor)
chain: B1 chain with A61W, A63H, A107H, A110H, Y132A, Y134A, H156A, H160A
B3: human NgR1 alanine mutant 111, 113, 114, 138 (receptor)
chain: B1 chain with A61W, A63H, D85A, S87A, D88A, A107H, A110H, D112A
B4: human NgR1 alanine mutant 95, 97, 117, 119, 120, 188, 189 (receptor)
chain: CPGACVCYNEPKVTTSCPQQGLQAVPVGIPAASQRIFLHGNRISHVPAASFRACRNLTILWLHSNVLAAIAAAAFTGLALLEQLDLSDNAALAAVDPATFHGLGRLHTLHLDRCGLQELGPGLFRGLAALQYLYLQDNALQALPDDTFRDLGNLTHLFLHGAAISSVPERAFRGLHSLDRLLLHQNRVAHVHPHAFRDLGRLMTLYLFANNLSALPTEALAPLRALQYLRLNDNPWVCDCRARPLWAWLQKFRGSSSEVPCSLPQRLAGRDLKRLAANDLQGCAVATGPYHPIWTGRATDEEPLGLPKCCQPDAADKASVLEPGRPASAGNALKGRVPPGDSPPGNGSGPRHINDSPFGTLPGSAEPPLTAVRPEGSEPPGFPTSGPRRRPGCSRKNRTRSHCRLGQAGSGGGGTGDSEGSGALPSLTCSLTPLGLALVLWTVLGPC
B5: human NgR1 alanine mutant 114, 117, 163 (receptor)
chain: B1 chain with A61W, A63H, D88A, Q91A, A107H, A110H, D137A
B6: human NgR1 alanine mutant 67, 68, 95, 97 (receptor)
chain: B4 chain with N41A, R42A, A91Q, A93R, A94S, A162N, A163R
B7: human NgR1 alanine mutant 182, 186, 210 (receptor)
chain: B1 chain with A61W, A63H, A107H, A110H, H156A, H160A, H184A
B8: human NgR1 alanine mutant 111, 113, 114 (receptor)
chain: B1 chain with A61W, A63H, D85A, S87A, D88A, A107H, A110H
B9: human NgR1 alanine mutant 210, 232, 234 (receptor)
chain: B1 chain with A61W, A63H, A107H, A110H, H184A, Y206A, F208A
B10: human NgR1 alanine mutant 67, 68, 71 (receptor)
chain: B1 chain with N41A, R42A, H45A, A61W, A63H, A107H, A110H
B11: AP-fused Amino-Nogo-A-19 (a.a. 995-1013) (ligand)
chain: IFSAELSKTSVVDLLYWRD
modifications: also: alkaline phosphatase (AP) fusion
notes: also called Ng19; not shown: alkaline phosphatase (AP), vector pcAP6
B12: AP-Amino-Nogo-A-24 (a.a. 995-1018) (ligand)
chain: IFSAELSKTSVVDLLYWRDIKKTG
modifications: also: alkaline phosphatase (AP) fusion
notes: also called Amino-Nogo-24; not shown: alkaline phosphatase (AP), vector pcAP6
B13: AP-fused Amino-Nogo fragment a.a. 995-1015 (ligand)
chain: IFSAELSKTSVVDLLYWRDIK
modifications: also: alkaline phosphatase (AP) fusion
notes: not shown: alkaline phosphatase (AP), vector pcAP6
B14: AP-fused Amino-Nogo fragment a.a. 996-1018 (ligand)
chain: FSAELSKTSVVDLLYWRDIKKTG
modifications: also: alkaline phosphatase (AP) fusion
notes: as for B13
B15: AP-fused Amino-Nogo fragment a.a. 995-1014 (ligand)
chain: IFSAELSKTSVVDLLYWRDI
modifications: also: alkaline phosphatase (AP) fusion
notes: as for B13
B16: AP-fused Amino-Nogo fragment a.a. 971-1018 (ligand)
chain: KVLVKEAEKKLPSDTEKEDRSPSAIFSAELSKTSVVDLLYWRDIKKTG
modifications: also: alkaline phosphatase (AP) fusion
notes: as for B13

Residue numbers refer to the chain shown, from its start. No end group written: not given here.

As usually defined, the Kd is the equilibrium constant for the complex coming apart. Low values mean higher affinity, high ones lower affinity.

One test concerns NgR ligands. Nature of the test: Binding of alanine substituted NgR mutants to NgR ligands, summary categories. Conditions: AP-Nogo66, AP-B4C, AP-B4C66, AP-Lingo-1, AP-OMgp and AP-MAG; compared to wild type NgR. The gist of the method:
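AP-fused ligands (Nogo66, B4C, B4C66, Lingo-1, OMgp, MAG) were assayed against 74 Ala-substitution mutants of human NgR1 targeting surface charged patches, glycosylation sites and predicted binding regions, plus the D259N variant. Outcomes were grouped into categories: binding lost for all ligands, retained for all, or ligand-selective.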
On to B1, for which the “ligand binding category of NgR mutant (Table II)” value (shortened to “ligand binding category”) is “No binding”.

For the molecule B2, the “ligand binding category” value is “No binding”.

For the molecule B3, the “ligand binding category” value is listed as “No binding”.

Regarding B4, the “ligand binding category” value is “No binding”.

In the case of B5, the “ligand binding category” value is on record as “No binding”.

Take B6: the “ligand binding category” value is on record as “No binding”.

As for B7, the “ligand binding category” value is “No binding”.

Turning to B8, the “ligand binding category” value is on record as “No binding”.

For B9, the “ligand binding category” value was “No binding”.

B10: the “ligand binding category” value is listed as “No binding”.

The next test deals with T1, AP fusion protein with the B4C fragment of Amino-Nogo-A fused directly to Nogo-66 (human, UniProt Q9NQC3 1055-1120).
T1 construct: domain: Nogo-66; also called AP-B4C66; AP-B4C-66; not shown: alkaline phosphatase (AP), vector pcAP6
T1 sequence: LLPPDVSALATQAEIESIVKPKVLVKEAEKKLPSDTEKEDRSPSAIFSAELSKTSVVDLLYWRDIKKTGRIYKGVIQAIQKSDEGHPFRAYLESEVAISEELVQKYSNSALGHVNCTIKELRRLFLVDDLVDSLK
Nature of the test: AP-ligand binding, COS-7.
Conditions: not given
Take B1: the binding result is “no binding”.

B2: the binding result was “no binding”.

Consider B3, for which the binding result is given as “no binding”.

On to B4, for which the binding result is recorded as “no binding”.

On to B5, for which the binding result is recorded as “no binding”.

B6: the binding result was “no binding”.

For the molecule B7, the binding result is “no binding”.

With B8, the binding result is listed as “no binding”.

B9: the binding result was “no binding”.

Take B10: the binding result was “no binding”.

The target of a further test is T2, AP-fused Amino-Nogo fragment B4C (a.a. 950-1018) (human, UniProt Q9NQC3 950-1018).
T2 construct: also called AmNg B4C; AP-B4C; not shown: alkaline phosphatase (AP), vector pcAP6
T2 sequence: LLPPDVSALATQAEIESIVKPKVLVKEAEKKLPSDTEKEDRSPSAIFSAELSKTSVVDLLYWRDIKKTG
Put plainly: AP-ligand binding, COS-7.
Conditions: not given
Take B1: the binding result is “no binding”.

As for B2, the binding result was “no binding”.

On to B3, for which the binding result is recorded as “no binding”.

Take B4: the binding result is reported as “no binding”.

In the case of B5, the binding result is given as “no binding”.

Turning to B6, the binding result is on record as “no binding”.

As for B7, the binding result is “no binding”.

As for B8, the binding result is recorded as “no binding”.

With B9, the binding result is recorded as “no binding”.

As for B10, the binding result was “no binding”.

A further test deals with T3, AP-Nogo-66 (UniProt Q9NQC3 1055-1120).
T3 construct: domain: Nogo-66; construct described elsewhere (Fournier 2001); also called AP-Ng66; Ng66; not shown: alkaline phosphatase (AP); construct described elsewhere
T3 sequence (looked up): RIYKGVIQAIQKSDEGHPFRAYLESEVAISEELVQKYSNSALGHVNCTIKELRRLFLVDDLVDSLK
Nature of the test: AP-ligand binding, COS-7.
Conditions: not given
On to B1, for which the binding result is “no binding”.

B2: the binding result is “no binding”.

B3: the binding result is given as “no binding”.

Take B4: the binding result is recorded as “no binding”.

On to B5, for which the binding result is on record as “no binding”.

B6: the binding result is on record as “no binding”.

In the case of B7, the binding result is listed as “no binding”.

As to B8, the binding result is on record as “no binding”.

Regarding B9, the binding result is “no binding”.

As to B10, the binding result is recorded as “no binding”.

For the next test, the target named is T4, NgR expressed on COS-7 cells (species not stated).
T4 chain: B1 chain with A61W, A63H, A107H, A110H
Nature of the test: AP fusion on NgR-expressing COS-7 cells.
Conditions: not given
From the text: Several alkaline phosphatase (AP) fusion proteins containing various Nogo-A segments derived from regions between the amino terminus and the first hydrophobic segment were examined to identify the mechanism of Amino-Nogo-A action. To generate additional AP fusion proteins, human amino Nogo fragments were amplified and ligated to the pcAP6 vector digested with restriction enzymes EcoRI and XhoI as described (Fournier, A. E., et al., Nature 409:341-346 (2001)). Plasmids were then transfected into HEK293T cells and conditioned media were collected after 7 days. None of these fragments bind with high affinity to non-transfected COS-7 cells. […] This binding is saturable with a Kd indistinguishable from that for AP-Nogo-66 association with NgR (Table I). To better define the region responsible for Amino-Nogo interaction with NgR, a range of truncation mutants of Amino-Nogo were examined as AP fusion proteins.
Binding Kds for AP fused Amino-Nogo fragments were measured by applying conditioned media containing AP fusion protein to NgR expressing COS-7 cells. Bound AP was stained and measured.
In the case of B11, the dissociation constant Kd worked out at 2.48 nM.

B12 came in with a Kd of 2.43 nM. The Kd values of the last two molecules are within 1.5-fold of each other.

B13 had a Kd of 4.55 nM.

Take B14: binding was put at a Kd of 26.6 nM.

Regarding B15, the affinity, expressed as Kd, was 3.19 nM.

B16 displayed a Kd of 2.69 nM.
